Test results from PMC11323494, “A network of acetyl phosphate-dependent modification modulates c-di-AMP homeostasis in Actinobacteria” (mBio, 2024).
pKd: −log10 of the molar value.

Assays:
DisA [1] = molecular target: T1, DisA (Saccharopolyspora erythraea, UniProt A4F6V9); test: HPLC of c-di-AMP formed (DAC assay); assay type: biochemical; conditions: 100 mM ATP, 10 mM MgCl2, 0.1 M NaCl, 40 mM Tris pH 7.5, 10 uM enzyme
T1 construct: recombinant His-tagged, pET28a(+), E. coli BL21(DE3); octamer
T1 sequence (A4F6V9 1-370): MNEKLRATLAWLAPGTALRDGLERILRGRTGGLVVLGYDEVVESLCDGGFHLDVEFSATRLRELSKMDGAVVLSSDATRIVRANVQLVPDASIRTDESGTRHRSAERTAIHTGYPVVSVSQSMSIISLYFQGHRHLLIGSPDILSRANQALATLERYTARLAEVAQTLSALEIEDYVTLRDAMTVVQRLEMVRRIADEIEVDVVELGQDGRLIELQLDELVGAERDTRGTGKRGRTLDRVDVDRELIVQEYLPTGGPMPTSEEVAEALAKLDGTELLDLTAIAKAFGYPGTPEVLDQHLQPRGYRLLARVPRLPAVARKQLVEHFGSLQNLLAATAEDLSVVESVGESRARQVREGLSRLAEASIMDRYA

DisA [2] = molecular target: T1, DisA; test: DAC activity by HPLC after […] h preincubation; acetylation by anti-AcK blot and LC-MS/MS; assay type: biochemical; conditions: covalent; lysine acetylation (K66, K284); 10 mM AcP, 5 h, 37 C, 50 mM HEPES pH 7.5; substrate ATP
DasR = molecular target: T2, DasR (Saccharopolyspora erythraea, UniProt A4F723); test: in vitro acetylation, anti-AcK Western blot; assay type: binding; conditions: covalent; lysine acetylation; 10 mM AcP, 0-5 h, 37 C, 50 mM HEPES pH 7.5
T2 construct: gene SACE_0500; recombinant His-tagged, pET28a(+), E. coli BL21(DE3); dimer
T2 sequence (A4F723 1-251): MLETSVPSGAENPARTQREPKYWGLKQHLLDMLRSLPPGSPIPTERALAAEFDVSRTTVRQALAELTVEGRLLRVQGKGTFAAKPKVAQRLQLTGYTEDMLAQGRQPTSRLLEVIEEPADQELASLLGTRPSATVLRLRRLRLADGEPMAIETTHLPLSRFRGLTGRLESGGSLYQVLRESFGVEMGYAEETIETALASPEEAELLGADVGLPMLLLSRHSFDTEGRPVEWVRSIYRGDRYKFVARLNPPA

[3] = molecular target: DNA integrity scanning protein (DisA), nonacetylated (Saccharopolyspora erythraea) (UniProt A4F6V9); test: cross-linking; purified protein in 20 mM bicine pH 8.0, 150 mM NaCl, 10 mM MgCl2, 0.2% n-octyl-beta-D-glucopyranoside, 8% glycerol; 1 mM disuccinimidyl suberate, room temperature, 1 h; 15% SDS-PAGE, Coomassie blue; bands quantified by densitometry; self-association (DisA monomer and octamer, DasR monomer and dimer)
[4] = molecular target: DasR, nonacetylated (GntR-family global regulator) (Saccharopolyspora erythraea); test: as above
DasR K78Q variant = test: cross-linking, gel band densitometry (ImageJ); conditions: parent: 100
DasR^K78R = test: cross-linking, gel band densitometry (ImageJ); conditions: parent: 100
[5] = system: DasR WT (Saccharopolyspora erythraea NRRL2338); test: BLI; conditions: BLI: 10 mM HEPES pH 8.0, 2 mM MgCl2, 0.1 mM EDTA, 200 mM KCl (running buffer + 10 µg/mL BSA, 0.02% Tween-20), SA sensor, temperature not stated; EMSA: 5 nM …

For `Nc1ncnc2c1ncn2[C@@H]1O[C@H](COP(=O)(O)OP(=O)(O)OP(=O)(O)O)[C@@H](O)[C@H]1O` [ATP], the “HPLC of c-di-AMP formed (DAC assay)” value (DisA [1]) was “started by the addition of 100-mM ATP”.
For `CC(=O)OP(=O)(O)O` [acetyl phosphate], the “DAC activity reduction (%)” value (DisA [2]) was ~ 75% and the “in vitro acetylation, anti-AcK Western blot” value (DasR) was “In vitro acetylation further confirmed that DasR was acetylated by AcP”.
Compound “DNA integrity scanning protein (DisA), nonacetylated (from UniProt A4F6V9 1-370) (enzyme)” has a stoichiometry N [3] of 8.
“DasR, nonacetylated (GntR-family global regulator) (natural protein)” gave a stoichiometry N [4] of 2.
Compound “DasR, nonacetylated (GntR-family global regulator) K78Q” has an other: relative monomer level (relative monomer level (WT = 100)) (DasR K78Q variant) of 230 and a percent of parent (relative dimer level (WT = 100)) (DasR K78Q variant) of 42.
For “DasR, nonacetylated (GntR-family global regulator) K78R”, the other: relative monomer level (relative monomer level (WT = 100)) (DasR^K78R) was 140 and the percent of parent (relative dimer level (WT = 100)) (DasR^K78R) was 89.
For disA promoter probe, the pKd [5] was 6.40.
